Experimental data taken from doi:10.1101/2024.04.25.591137 (bioRxiv, 2024).

Molecular target: the molecule itself
Test: negative-stain TEM of fibrils

Row | Protein | binding result
1 | Ac-SFYVYSRVK-NH2 [SK9, SARS-CoV-2 envelope protein peptide SFYVYSRVK] | binds
2 | Ac-LVKPSFYVYSRVKNLNSSRV-NH2 [LV20, 20-residue SARS-CoV-2 envelope protein peptide LVKPSFYVYSRVKNLNSSRV] | binds
